Changes are numbered by the printed parent chain. Blank lines part the entries; values can stand above or below the binder they belong to.
Tests used:
[1] = target: T1, human FcεR1α expressed on cells (human, UniProt P12319 26-257); assay: cell-based or functional assay
T1 sequence (looked up): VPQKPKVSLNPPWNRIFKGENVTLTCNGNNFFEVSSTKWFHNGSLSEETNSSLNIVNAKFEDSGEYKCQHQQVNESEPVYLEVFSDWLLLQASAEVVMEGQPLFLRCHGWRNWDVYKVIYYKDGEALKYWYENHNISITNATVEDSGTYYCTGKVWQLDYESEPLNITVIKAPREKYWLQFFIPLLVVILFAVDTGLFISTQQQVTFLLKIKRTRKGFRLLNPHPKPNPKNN

[2] = target: T1, human FcεR1α expressed on cells; assay: cell-based or functional assay; remark: listed apart in the source
[3] = target: T2, monkey (cynomolgus) FcεR1α expressed on cells (cynomolgus); assay: flow cytometry, 70 nM antibody on HEK293/mfFcεR1α/hFcεR1β/hFcεR1γ cells, No IgE
T2 construct: range 4-260; On HEK293 cells, co-expressed with human FcεR1β and FcεR1γ; also called mfFcεR1α; HEK293/mfFcεR1α/hFcεR1β/hFcεR1γ cells
Protocol: (§1) For flow cytometry analysis, HEK293, HEK293/hFcεR1α/hFcεR1β/hFcεR1γ and HEK293/mf FcεR1α/hFcεR1β/hFcεR1γ cells were collected after dissociation using Enzyme Free Dissociation Buffer (Millipore Cat# S-004), and the cells were pre-incubated with or without 70 nM human IgE, for 30 minutes on ice in FACS buffer (PBS, without Ca⁺⁺ and Mg⁺⁺, (Irvine Scientific, Cat#9240) containing 2% FBS). Jurkat/NFAT-luc cells were also collected. The antibodies at the concentration of 70 nM were then added to 1×10⁶ cells/well of each cell type at 4° C. for 30 minutes. […] Cells were fixed using BD CytoFix™ (Becton Dickinson, Cat. #554655) and analyzed on Accuri™ C6 (BD) or CytoFLEX Flow cytometer (Beckman Coulter). Unstained and secondary antibody alone controls were also tested for all cell lines and a sample was evaluated for viability using the Far Red Fluo viability dye (Thermo Fisher, Cat#L10120) according to the manufacturer's protocol. The results were analyzed using FlowJo software (version 10.0.8, FlowJo) to determine the geometric means of fluorescence for viable cells and the binding ratio was calculated with the mean fluorescence intensity (MFI) of the experimental condition normalized by the MFI of the unstained respective cells.

[4] = target: T3, human CD3 expressed in Jurkat cells (human, UniProt P07766 23-207; P04234 22-171; P20963 22-164; P09693 23-182); assay: cell-based or functional assay
T3 sequence (P07766 23-207 limits assumed, chain 1 of 4): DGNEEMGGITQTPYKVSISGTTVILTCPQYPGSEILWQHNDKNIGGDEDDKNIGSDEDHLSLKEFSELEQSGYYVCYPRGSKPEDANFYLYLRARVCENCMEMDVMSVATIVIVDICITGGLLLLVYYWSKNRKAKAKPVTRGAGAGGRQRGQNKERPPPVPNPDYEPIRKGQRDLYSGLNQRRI
T3 sequence (P04234 22-171 limits assumed, chain 2 of 4): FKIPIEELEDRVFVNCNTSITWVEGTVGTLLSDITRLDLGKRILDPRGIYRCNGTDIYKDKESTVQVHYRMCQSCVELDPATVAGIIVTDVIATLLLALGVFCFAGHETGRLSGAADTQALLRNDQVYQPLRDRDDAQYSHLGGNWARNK
T3 sequence (P20963 22-164 limits assumed, chain 3 of 4): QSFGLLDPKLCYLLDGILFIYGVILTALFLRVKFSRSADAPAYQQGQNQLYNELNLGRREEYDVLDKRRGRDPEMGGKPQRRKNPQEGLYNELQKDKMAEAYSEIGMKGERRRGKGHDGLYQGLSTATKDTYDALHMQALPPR
T3 sequence (P09693 23-182 limits assumed, chain 4 of 4): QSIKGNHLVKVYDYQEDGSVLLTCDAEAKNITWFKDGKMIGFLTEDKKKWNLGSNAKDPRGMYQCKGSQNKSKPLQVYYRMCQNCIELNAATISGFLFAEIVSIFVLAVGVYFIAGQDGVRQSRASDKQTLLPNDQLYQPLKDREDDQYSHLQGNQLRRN

[5] = target: T1, human FcεR1α expressed on cells; assay: flow cytometry, 70 nM antibody on HEK293/hFcεR1α/hFcεR1β/hFcεR1γ cells pre-incubated with 70 nM human IgE
Protocol: as §1

mfFcεR1α.MMH [6] = target: T4, mfFcεR1α.MMH (cynomolgus (Macaca fascicularis)); assay: SPR (Biacore 8k), antibody captured on anti-human Fc, mfFcεR1α.MMH injected, 25°C
T4 construct: also called mfFceR1a.MMH; ectodomain of cynomolgus FcεR1α with C-term myc-myc-6×His tag
T4 chain: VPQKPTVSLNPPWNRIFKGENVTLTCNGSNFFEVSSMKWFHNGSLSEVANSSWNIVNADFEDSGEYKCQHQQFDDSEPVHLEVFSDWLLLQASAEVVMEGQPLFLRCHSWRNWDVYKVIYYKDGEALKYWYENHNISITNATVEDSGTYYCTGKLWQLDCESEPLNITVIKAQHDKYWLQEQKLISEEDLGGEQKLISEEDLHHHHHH
Protocol: (§2) Equilibrium dissociation constants (KD) for human or cynomolgus FcεR1α ectodomain binding to purified anti-FcεR1α monoclonal antibodies (mAbs) and CD3×FcεR1α bispecific antibodies (bsAbs) were determined using a real-time surface plasmon resonance biosensor (SPR-Biacore), Biacore 8k. All binding studies were performed in 10 mM HEPES, 150 mM NaCl, 3 mM EDTA, and 0.05% v/v surfactant Tween-20, pH 7.4 (HBS-ET) running buffer at 25° C. and 37° C.
(§3) The Biacore CM4 sensor surface was first derivatized by amine coupling with a monoclonal mouse anti-human Fc antibody to capture approximately 500-900 RUs anti-FcεR1α monoclonal antibodies or anti-CD3×FcεR1α bispecific monoclonal antibodies. 1 RU (response unit) represents 1 pg of protein per mm², as defined by the manufacturer. The ectodomain of human and cynomolgus FcεR1α reagents were expressed with a C-term myc-myc-6×His tag-hFcεR1α.MMH (SEQ ID NO: 57) and mfFcεR1α.MMH (SEQ ID NO: 58). Different concentrations of FcεR1α reagents were prepared in HBS-ET running buffer (600 nM-7.4 nM; serially diluted by 3-fold) and injected over anti-human Fc captured anti-FcεR1α monoclonal antibodies or anti-CD3×FcεR1α bispecific monoclonal antibodies surfaces for 1 minute at a flow rate of 30 μL/minute. The dissociation of bound FcεR1α reagents was monitored for 4 minutes in HBS-ET running buffer. Association (kₐ) and dissociation (kd) rate constants were determined by fitting the real-time binding sensorgrams to a 1:1 binding model with mass transport limitation using Biacore 8k evaluation software. Binding dissociation equilibrium constants (KD) and dissociative half-lives (t½) were calculated from the kinetic rate constants as: […]

[7] = target: T3, human CD3 expressed in Jurkat cells; assay: flow cytometry, 70 nM antibody on Jurkat/NFAT-luc cells, No IgE
Protocol: as §1

[8] = target: T2, monkey (cynomolgus) FcεR1α expressed on …; assay: flow cytometry, 70 nM antibody on HEK293/mfFcεR1α/hFcεR1β/hFcεR1γ cells pre-incubated with 70 nM human IgE
Protocol: as §1

hFcεR1α.MMH [9] = target: T5, hFcεR1α.MMH (human); assay: SPR (Biacore 8k), antibody captured on anti-human Fc, hFcεR1α.MMH injected, 25°C
T5 construct: also called ectodomain of human FcεR1α with C-term myc-myc-6×His tag
T5 chain: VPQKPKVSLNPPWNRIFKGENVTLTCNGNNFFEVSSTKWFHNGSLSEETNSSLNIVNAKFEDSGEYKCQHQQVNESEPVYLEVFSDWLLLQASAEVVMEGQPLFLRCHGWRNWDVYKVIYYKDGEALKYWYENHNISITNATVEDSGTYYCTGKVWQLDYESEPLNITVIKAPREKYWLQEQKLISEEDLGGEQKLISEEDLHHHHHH
Protocol: as §2, §3

mfFcεR1α.MMH [10] = target: T4, mfFcεR1α.MMH; assay: SPR (Biacore 8k), antibody captured on anti-human Fc, mfFcεR1α.MMH injected, 37°C
Protocol: as §2, §3

[11] = target: T1, human FcεR1α expressed on cells; assay: flow cytometry, 70 nM antibody on HEK293/hFcεR1α/hFcεR1β/hFcεR1γ cells, No IgE
Protocol: as §1

hFcεR1α.MMH [12] = target: T5, hFcεR1α.MMH; assay: SPR (Biacore 8k), antibody captured on anti-human Fc, hFcεR1α.MMH injected, 37°C
Protocol: as §2, §3

EC50, decrease of primary human basophils within PBMC with activated CD8+ T cells [1]: 3.75 nM
Maximum percent basophil decrease, PBMC with activated CD8+ T cells [1]: 90.6%
EC80, cleaved caspase 3+ cleaved PARP+ HEK293/hFcεR1α/hFcεR1β/hFcεR1γ target cells with activated CD8+ T cells [2]: 0.0346 nM
Maximum percent apoptotic cells, HEK293/hFcεR1α/hFcεR1β/hFcεR1γ target cells with activated CD8+ T cells [2]: 56%
Binding Ratio (MFI of Treated/MFI of Unstained) [3]: 166
EC50 [M], NFAT-luciferase in Jurkat/NFAT-luc with HEK293/hFcεR1α/hFcεR1β/hFcεR1γ cells, 10 nM IgE [4]: 1.5e-09 M
EC50 [M], NFAT-luciferase in Jurkat/NFAT-luc with HEK293/hFcεR1α/hFcεR1β/hFcεR1γ cells, No IgE [4]: 3.4e-10 M
Fold Activation, Jurkat/NFAT-luc with HEK293/hFcεR1α/hFcεR1β/hFcεR1γ cells, 10 nM IgE [4]: 32 fold
Fold Activation, Jurkat/NFAT-luc with HEK293/hFcεR1α/hFcεR1β/hFcεR1γ cells, No IgE [4]: 32 fold
Binding Ratio (MFI of Treated/MFI of Unstained) [5]: 277
600 nM mfFceR1a.MMH Bound (RU) (mfFcεR1α.MMH [6]): 40 RU
Kd (mfFcεR1α.MMH [6]): 363 nM
koff (mfFcεR1α.MMH [6]): 0.0144 s⁻¹
kon (mfFcεR1α.MMH [6]): 39600 M⁻¹ s⁻¹
t½ (mfFcεR1α.MMH [6]): 48 s
Binding Ratio (MFI of Treated/MFI of Unstained) [7]: 48
Binding Ratio (MFI of Treated/MFI of Unstained) [8]: 236
600 nM hFcεR1α.MMH Bound (RU) (hFcεR1α.MMH [9]): 72 RU
Kd (hFcεR1α.MMH [9]): 152 nM
koff (hFcεR1α.MMH [9]): 0.0104 s⁻¹
kon (hFcεR1α.MMH [9]): 68200 M⁻¹ s⁻¹
t½ (hFcεR1α.MMH [9]): 66 s
600 nM mfFceR1a.MMH Bound (RU) (mfFcεR1α.MMH [10]): 20 RU
Kd (mfFcεR1α.MMH [10]): 1030 nM
koff (mfFcεR1α.MMH [10]): 0.0399 s⁻¹
kon (mfFcεR1α.MMH [10]): 38600 M⁻¹ s⁻¹
t½ (mfFcεR1α.MMH [10]): 17.4 s
Binding Ratio (MFI of Treated/MFI of Unstained) [11]: 269
600 nM hFcεR1α.MMH Bound (RU) (hFcεR1α.MMH [12]): 43 RU
Kd (hFcεR1α.MMH [12]): 801 nM
koff (hFcεR1α.MMH [12]): 0.0588 s⁻¹
kon (hFcεR1α.MMH [12]): 73500 M⁻¹ s⁻¹
t½ (hFcεR1α.MMH [12]): 12 s
B1: bsAb24919D (bispecific antibody, human IgG4 S228P, kappa)
heavy 1: QVQLQESGPGLVKPSETLSLTCTVSGDSISDYYWIWIRQPPGKGLEWIGYIYYSGSTNYNPSLKSRVTISVATSKNQFSLKLRSVTAADTAMYYCARRNNWNHVRAFDIWGQGTMVTVSSASTKGPSVFPLAPCSRSTSESTAALGCLVKDYFPEPVTVSWNSGALTSGVHTFPAVLQSSGLYSLSSVVTVPSSSLGTKTYTCNVDHKPSNTKVDKRVESKYGPPCPPCPAPPVAGPSVFLFPPKPKDTLMISRTPEVTCVVVDVSQEDPEVQFNWYVDGVEVHNAKTKPREEQFNSTYRVVSVLTVLHQDWLNGKEYKCKVSNKGLPSSIEKTISKAKGQPREPQVYTLPPSQEEMTKNQVSLTCLVKGFYPSDIAVEWESNGQPENNYKTTPPVLDSDGSFFLYSRLTVDKSRWQEGNVFSCSVMHEALHNHYTQKSLSLSLGK
heavy 2: EVQLVESGGGLVQPGRSLRLSCAASGFTFDDYSMHWVRQAPGKGLEWVSGISWNSGSIGYADSVKGRFTISRDNAKNSLYLQMNSLRAEDTALYYCAKYGSGYGKFYYYGMDVWGQGTTVTVSSASTKGPSVFPLAPCSRSTSESTAALGCLVKDYFPEPVTVSWNSGALTSGVHTFPAVLQSSGLYSLSSVVTVPSSSLGTKTYTCNVDHKPSNTKVDKRVESKYGPPCPPCPAPPVAGPSVFLFPPKPKDTLMISRTPEVTCVVVDVSQEDPEVQFNWYVDGVEVHNAKTKPREEQFNSTYRVVSVLTVLHQDWLNGKEYKCKVSNKGLPSSIEKTISKAKGQPREPQVYTLPPSQEEMTKNQVSLTCLVKGFYPSDIAVEWESNGQPENNYKTTPPVLDSDGSFFLYSRLTVDKSRWQEGNVFSCSVMHEALHNRFTQKSLSLSPGK
light: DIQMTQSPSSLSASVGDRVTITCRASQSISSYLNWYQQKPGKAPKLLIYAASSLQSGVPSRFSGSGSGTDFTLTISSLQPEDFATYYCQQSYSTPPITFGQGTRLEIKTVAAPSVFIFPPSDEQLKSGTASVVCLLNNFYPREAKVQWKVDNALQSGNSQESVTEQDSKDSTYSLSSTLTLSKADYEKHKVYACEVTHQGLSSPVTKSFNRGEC
notes: IgG4 Fc domain; two distinct heavy chains with a common light chain; also called anti-FcεR1α×CD3 bispecific antibody; FcεR1α × hCD3

EC50, decrease of primary human basophils within PBMC with activated CD8+ T cells [1]: 20 nM
Maximum percent basophil decrease, PBMC with activated CD8+ T cells [1]: 80.1%
EC80, cleaved caspase 3+ cleaved PARP+ HEK293/hFcεR1α/hFcεR1β/hFcεR1γ target cells with activated CD8+ T cells [2]: 0.126 nM
Maximum percent apoptotic cells, HEK293/hFcεR1α/hFcεR1β/hFcεR1γ target cells with activated CD8+ T cells [2]: 56.5%
Binding Ratio (MFI of Treated/MFI of Unstained) [3]: 142
EC50 [M], NFAT-luciferase in Jurkat/NFAT-luc with HEK293/hFcεR1α/hFcεR1β/hFcεR1γ cells, 10 nM IgE [4]: 4.9e-09 M
EC50 [M], NFAT-luciferase in Jurkat/NFAT-luc with HEK293/hFcεR1α/hFcεR1β/hFcεR1γ cells, No IgE [4]: 6.8e-10 M
Fold Activation, Jurkat/NFAT-luc with HEK293/hFcεR1α/hFcεR1β/hFcεR1γ cells, 10 nM IgE [4]: 25 fold
Fold Activation, Jurkat/NFAT-luc with HEK293/hFcεR1α/hFcεR1β/hFcεR1γ cells, No IgE [4]: 23 fold
Binding Ratio (MFI of Treated/MFI of Unstained) [5]: 201
600 nM mfFceR1a.MMH Bound (RU) (mfFcεR1α.MMH [6]): 26 RU
Kd (mfFcεR1α.MMH [6]): 467 nM
koff (mfFcεR1α.MMH [6]): 0.0195 s⁻¹
kon (mfFcεR1α.MMH [6]): 41700 M⁻¹ s⁻¹
t½ (mfFcεR1α.MMH [6]): 36 s
Binding Ratio (MFI of Treated/MFI of Unstained) [7]: 48
Binding Ratio (MFI of Treated/MFI of Unstained) [8]: 169
600 nM hFcεR1α.MMH Bound (RU) (hFcεR1α.MMH [9]): 46 RU
Kd (hFcεR1α.MMH [9]): 303 nM
koff (hFcεR1α.MMH [9]): 0.02 s⁻¹
kon (hFcεR1α.MMH [9]): 65900 M⁻¹ s⁻¹
t½ (hFcεR1α.MMH [9]): 36 s
600 nM mfFceR1a.MMH Bound (RU) (mfFcεR1α.MMH [10]): 10 RU
Kd (mfFcεR1α.MMH [10]): 3350 nM
koff (mfFcεR1α.MMH [10]): 0.0445 s⁻¹
kon (mfFcεR1α.MMH [10]): 13300 M⁻¹ s⁻¹
t½ (mfFcεR1α.MMH [10]): 15.6 s
Binding Ratio (MFI of Treated/MFI of Unstained) [11]: 248
600 nM hFcεR1α.MMH Bound (RU) (hFcεR1α.MMH [12]): 19 RU
Kd (hFcεR1α.MMH [12]): 1550 nM
koff (hFcεR1α.MMH [12]): 0.0991 s⁻¹
kon (hFcεR1α.MMH [12]): 63900 M⁻¹ s⁻¹
t½ (hFcεR1α.MMH [12]): 7.2 s
B2: bsAb24920D (bispecific antibody, human IgG4 S228P, kappa)
heavy 1: B1 heavy 1 with S30N, I35S, I37L, A72D, R83S, M92V, A96T, H103Y
heavy 2: B1 heavy 2
light: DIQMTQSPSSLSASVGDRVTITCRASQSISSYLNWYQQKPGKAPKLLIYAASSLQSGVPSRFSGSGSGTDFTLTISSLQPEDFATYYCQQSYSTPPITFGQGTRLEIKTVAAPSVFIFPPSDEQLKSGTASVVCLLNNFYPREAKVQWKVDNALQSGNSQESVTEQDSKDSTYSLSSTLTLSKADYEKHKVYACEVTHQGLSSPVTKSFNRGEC
notes: as for B1
